How the values were obtained:
[1] = biological target: human GLP-1 receptor (stable CHO cell line) (human) (UniProt P43220)
[2] = biological target: mouse GLP-1 receptor (HEK293 cell line) (mouse) (UniProt O35659)
mouse GLP-1 receptor (HEK293 cell line) (mouse), sequence (O35659 22-463): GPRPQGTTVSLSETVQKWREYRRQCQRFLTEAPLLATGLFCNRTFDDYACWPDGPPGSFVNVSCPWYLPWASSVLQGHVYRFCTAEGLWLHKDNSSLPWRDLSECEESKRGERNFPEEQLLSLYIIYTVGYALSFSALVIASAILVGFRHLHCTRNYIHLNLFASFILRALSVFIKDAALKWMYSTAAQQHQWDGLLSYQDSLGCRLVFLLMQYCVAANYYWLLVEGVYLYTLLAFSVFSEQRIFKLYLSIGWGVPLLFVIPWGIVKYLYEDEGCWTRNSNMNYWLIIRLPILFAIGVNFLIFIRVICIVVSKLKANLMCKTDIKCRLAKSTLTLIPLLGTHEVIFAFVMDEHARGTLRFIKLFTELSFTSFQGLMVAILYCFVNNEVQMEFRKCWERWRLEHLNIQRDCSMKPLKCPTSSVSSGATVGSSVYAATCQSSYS

human GLP-1 receptor (stable CHO cell line) (human), sequence (P43220 24-463): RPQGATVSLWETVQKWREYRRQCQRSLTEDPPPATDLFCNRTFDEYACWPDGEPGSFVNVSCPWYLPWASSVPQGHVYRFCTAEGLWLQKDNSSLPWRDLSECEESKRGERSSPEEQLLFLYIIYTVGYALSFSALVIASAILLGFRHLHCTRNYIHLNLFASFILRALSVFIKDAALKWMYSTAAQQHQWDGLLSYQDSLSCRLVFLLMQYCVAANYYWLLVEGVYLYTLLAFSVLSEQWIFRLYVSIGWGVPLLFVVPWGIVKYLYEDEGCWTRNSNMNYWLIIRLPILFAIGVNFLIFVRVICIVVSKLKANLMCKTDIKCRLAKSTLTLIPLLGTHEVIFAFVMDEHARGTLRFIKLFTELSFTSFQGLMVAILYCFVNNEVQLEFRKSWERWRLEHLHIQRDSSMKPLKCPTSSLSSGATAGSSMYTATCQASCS

In the case of “Exendin-4 (from UniProt P26349 48-87) (peptide)”, the EC50, cAMP production (Gαs; HTRF) in CHO cells expressing human GLP-1R [1] is reported as 0.091 nM and the EC50, cAMP production (Gαs; HTRF) in HEK293 cells expressing mouse GLP-1R [2] is reported as 0.322 nM.

Reference: article PMC4686834, “Autocrine selection of a GLP-1R G-protein biased agonist with potent antidiabetic effects” (Nature Communications, 2015)
